According to patent publication US11505783B2, “Differentiation of human embryonic stem cells” (Janssen Biotech, Inc., priority 2007, dated 2022):
Read-outs that look alike come from different tables or passages of the source.

What was measured:
[1] = tested on: human embryonic stem cell line H1; conditions: end of stage 5, real-time PCR
Protocol: (§1) Cells of the human embryonic stem cell line H1, at passage 51 were cultured on […]™ coated dishes (1:30 dilution) and exposed to DMEM/F12 medium supplemented with 0.5% FBS, and 100 ng/ml Activin-A (R&D Systems, MN) plus 20 ng/ml WNT-3a (Catalog #1324-WN-002, R&D Systems, MN), for two days followed by treatment with DMEM/F12 media supplemented with 2% FBS and 100 ng/ml Activin-A (AA) for an additional two days. Next the cultures were treated with DMEM/F12+2% FBS+20 ng/ml FGF7+0.25 μm Cyclopamine-KAAD (#239804, Calbiochem, CA) for three days followed by four day incubation in DMEM/F12+1% B27 (Invitrogen, CA)+20 ng/ml FGF7+0.25 μm Cyclopamine-KAAD+2 μm Retinoic acid (RA) (Sigma, MO).
Next, the cells were cultured in DMEM/F12+1% B27 (Invitrogen, CA)+50 ng/ml Exendin-4 (Sigma, MO)+1 μm DAPT (Calbiochem, CA) for six days followed by additional three days incubation in DMEM/F12+1% B27 (Invitrogen, CA)+50 ng/ml Exendin-4 (Sigma, MO)+50 ng/ml IGF (Peprotech, N.J.)+50 ng/ml HGF (R&D Systems, MN). Some of the cultures were treated with 1 μM of the following compounds at either stage 3, stage 4, or stages 3+4: MEK/MAPK inhibitor (2′-Amino-3′-methoxyflavone) (PD98059, Calbiochem, CA), RAF kinase inhibitor (5-Iodo-3-R3,5-dibromo-4-hydroxyphenyl)methylenel-2-indolinone) (#553008, Calbiochem, CA), SMAD3 inhibitor (6,7-Dimethyl-2-((2E)-3-(1-methyl-2-phenyl-1Hpyrrolo[2,3-b]pyridin-3-yl-prop-2-enoyl))-1,2,3,4-tetrahydroisoquinoline) (#566405, Calbiochem, CA), AKT inhibitor (1L6-Hydroxymethyl-chiroinositol-2-(R)-2-O-methyl-3-O-octadecyl-sn-glycerocarbonate) (#124005, Calbiochem, CA), MEK inhibitor (#444937 Calbiochem, CA), and TGF-B receptor I inhibitor (2-(3-(6-Methylpyridin-2-yl)-1H-pyrazol-4-yl)-1,5-naphthyridine) (inhibits activin receptor-like kinase 5, #616452, Calbiochem, CA).

[2] = tested on: human embryonic stem cell line H1; conditions: end of stage 5, real-time PCR; remark: listed apart in the source
Protocol: as §1, with “44” for “51”
Next, cells were cultured in DMEM/F12+1% B27 (Invitrogen, CA)+50 ng/ml Exendin-4 (Sigma, MO)+1 μm DAPT (Calbiochem, CA) for six days followed by additional three days incubation in DMEM/F12+1% B27 (Invitrogen, CA)+50 ng/ml Exendin-4 (Sigma, MO)+50 ng/ml IGF (Peprotech, N.J.)+50 ng/ml HGF (R&D Systems, MN). Some of the cultures were treated with 1 μM of TGF-B receptor I kinase inhibitor (2-(3-(6-Methylpyridin-2-yl)-1H-pyrazol-4-yl)-1,5-naphthyridine) (an inhibitor of activin receptor-like kinase 5, #616452, Calbiochem, CA) at stage 4, stage 5, or stages 4 and 5.

[3] = tested on: human embryonic stem cell line H1; conditions: 1-10 μm at stages 4 and 5; end of stages 4 to 5; compared to controls (standard treatment)
Protocol: Next the cultures were treated with DMEM/F12+2% FBS+20 ng/ml FGF7+0.25 μm Cyclopamine-KAAD (#239804, Calbiochem, CA) for three days followed by four day incubation in DMEM/F12+1% B27 (Invitrogen, CA)+20 ng/ml FGF7+0.25 μm Cyclopamine-KAAD+2 μm Retinoic acid (RA) (Sigma, MO).
Next, cells were cultured in DMEM/F12+1% B27 (Invitrogen, CA)+50 ng/ml Exendin-4 (Sigma, MO)+1 μm DAPT (Calbiochem, CA) for six days followed by additional three days incubation in DMEM/F12+1% B27 (Invitrogen, CA)+50 ng/ml Exendin-4 (Sigma, MO)+50 ng/ml IGF (Peprotech, N.J.)+50 ng/ml HGF (R&D Systems, MN).

[4] = tested on: human embryonic stem cell line H1; assay: Real-time PCR of markers, Noggin at stage 3 with ALK5 inhibitor II at stages 4 and 5 (Example 6); assay type: cell-based
Protocol: Cells of the human embryonic stem cell line H1, at passage 41 were cultured on […] ™ coated dishes (1:30 dilution) and exposed to DMEM/F12 medium supplemented with 0.5% FBS, and 100 ng/ml Activin-A (R&D Systems, MN) plus 20 ng/ml WNT-3a (Catalog #1324-WN-002, R&D Systems, MN), for two days followed by treatment with DMEM/F12 media supplemented with 2% FBS and 100 ng/ml Activin-A (AA) for an additional two days. Next the cultures were treated with DMEM/F12+2% FBS+20 ng/ml FGF7+0.25 μm Cyclopamine-KAAD (#239804, Calbiochem, CA) for three days followed by four day incubation in DMEM/F12+1% B27 (Invitrogen, CA)+20 ng/ml FGF7+0.25 μm Cyclopamine-KAAD+2 μm Retinoic acid (RA) (Sigma, MO)+0-500 ng/ml of Noggin (R & D Systems, MN).

[5] = tested on: human embryonic stem cell line H1; assay: Real-time PCR of markers, Noggin at stages 3 and/or 4 with ALK5 inhibitor II at stages 4 and 5 (Example 7); assay type: cell-based
Description: FIGS. 8A-8D depict a phase contrast image of the cultures according to the above protocol. In some of the cultures, stage 5 was extended from 3 days to 21 days. By day 10-12 of culture in stage 5 media, there were distinct clusters of cells resembling human islets present throughout the culture plate. FIGS. 8A-8B show images of day 6 cultures in stage 5 while FIGS. 8C-8D show images of day 12 stage 5 cultures. Some of the clusters were manually removed, plated on 1:30 […]-coated plates in stage 5 media. After 2 days of incubation, the clusters were stained for insulin and glucagon. The majority of the cells in the clusters as shown in FIGS. 9A-9B were positive for human insulin. In order to further optimize the dose of the BMP inhibitor, Noggin; cultures were treated at stage 2-4 with 0, 10, 50, or 100 ng/ml of Noggin. FIG. 10 depicts expression of NGN3 at stage 4 for cultures treated with varying doses of Noggin at stages 2-4.

[6] = tested on: human embryonic stem cell line H1; assay: Real-time PCR of markers, Noggin at stages 3-4, Netrin-4 and ALK5 inhibitor II at stage 4 (Example 8); assay type: cell-based
[7] = 1 μM added at stage 4 or stages 3 and 4
[8] = 1 μM added at stage 4 or stages 4 and 5
[9] = Noggin at both stages 3 and 4, compared to untreated samples
[10] = omission of Noggin at stage 4, Netrin-4 plus Alk5 inhibitor added, end of stage 5

## Cc1cccc(-c2n[nH]cc2-c2ccc3ncccc3n2)n1 [ALK5 inhibitor II, 2-(3-(6-Methylpyridin-2-yl)-1H-pyrazol-4-yl)-1,5-naphthyridine]
[1]; [7]
  expression of PDX-1: marginally affecting
  expression of insulin, glucagon, NeuroD, and NKX2.2: significantly enhanced
[1]; 1 μM added only at stage 3
  expression of endocrine markers: marginally upregulated
[2]; [8]
  expression of PDX-1: marginally affecting
  expression of insulin, glucagon, NeuroD, and NKX2.2: significantly enhanced
[2]; 1 μM added only at stage 5
  expression of endocrine markers: marginally upregulated
[3]
  expression of insulin, glucagon, PDX-1 and NeuroD: significantly enhanced

B1: Noggin: recombinant human Noggin, BMP inhibitor (R & D Systems) (protein, UniProt Q13253 28-232, looked up)
Noggin: QHYLHIRPAPSDNLPLVDLIEHPDPIFDPKEKDLNETLLRSLLGGHYDPGFMATSPPEDRPGGGGGAAGGAEDLAELDQLLRQRPSGAMPSEIKGLEFSEGLAQGKKQRLSKKLRRKLQMWLWSQTFCPVLYAWNDLGSRFWPRYVKVGSCFSKRSCSVPEGMVCKPSKSVHLTVLRWRCQRRGGQRCGWIPIQYPIISECKCSC
[4]; 100 ng/ml at stage 3, compared to untreated samples
  expression of albumin and CDX2: significantly suppressing
[4]; 100 ng/ml at stage 3, end of stage 4, 1 μm ALK5 inhibitor II at stages 4 and 5
  expression of insulin and glucagon: marginally enhanced
[4]; 500 ng/ml at stage 3
  expression of PDX-1: did not affect
  expression of endocrine markers, along with albumin and CDX2: significantly diminish
[5]; 100 ng/ml Noggin at stage 3+4 plus ALK5 inhibitor II, stages 4-5
  expression of insulin and glucagons: dramatically enhanced
[5]; [9]
  expression of NGN3: significantly enhanced
  expression of albumin and CDX2: significantly suppressing
[5]; cultures treated at stage 2-4 with 0, 10, 50, or 100 ng/ml
  Noggin concentration resulting in maximal expression of NGN3 at stage 4: 50 to 100 ng/mL
[6]; [10]
  expression of NGN3, NKX2.2, and NeuroD: significantly reduce
  expression of insulin and glucagon: moderately affecting

B2: Netrin-4: netrin protein added at 100 ng/ml (R&D Systems) (protein, UniProt Q9HB63 19-628, looked up)
Netrin-4: GLSGVAGVSSRCEKACNPRMGNLALGRKLWADTTCGQNATELYCFYSENTDLTCRQPKCDKCNAAYPHLAHLPSAMADSSFRFPRTWWQSAEDVHREKIQLDLEAEFYFTHLIVMFKSPRPAAMVLDRSQDFGKTWKPYKYFATNCSATFGLEDDVVKKGAICTSKYSSPFPCTGGEVIFKALSPPYDTENPYSAKVQEQLKITNLRVQLLKRQSCPCQRNDLNEEPQHFTHYAIYDFIVKGSCFCNGHADQCIPVHGFRPVKAPGTFHMVHGKCMCKHNTAGSHCQHCAPLYNDRPWEAADGKTGAPNECRTCKCNGHADTCHFDVNVWEASGNRSGGVCDDCQHNTEGQYCQRCKPGFYRDLRRPFSAPDACKPCSCHPVGSAVLPANSVTFCDPSNGDCPCKPGVAGRRCDRCMVGYWGFGDYGCRPCDCAGSCDPITGDCISSHTDIDWYHEVPDFRPVHNKSEPAWEWEDAQGFSALLHSGKCECKEQTLGNAKAFCGMKYSYVLKIKILSAHDKGTHVEVNVKIKKVLKSTKLKIFRGKRTLYPESWTDRGCTCPILNPGLEYLVAGHEDIRTGKLIVNMKSFVQHWKPSLGRKVMDILKRECK
[6]; 100 ng/ml Netrin-4 and ALK5 inhibitor II at stage 4 plus 100 ng/ml Noggin at stage 3 and 4
  expression of NGN3, NeuroD, and Pax4: dramatically enhanced
